The text below walks through data of patent US20070020258A1.

One may read the EC50 as the midpoint of the concentration-response curve. Read a high EC50 as lower potency in that assay.

The assay deals with membrane IgE on U266 B1 cells (human) (UniProt P01854). As to the kind of experiment: FACS, U266 B1 cells.

B1: MAE11 (antibody, V domains shown)
VH: DVQLQESGPGLVKPSQSLSLACSVTGYSITSGYSWNWIRQFPGNKLEWMGSITYDGSSNYNPSLKNRISVTRDTSQNQFFLKLNSATAEDTATYYCARGSHYFGHWHFAVWGAGTTVTVSS
VL: DIVLTQSPASLAVSLGQRATISCKASQSVDYDGDSYMNWYQQKPGQPPILLIYAASYLGSEIPARFSGSGSGTDFTLNIHPVEEEDAATFYCQQSHEDPYTFGAGTKLEIK
As for B1, the EC50 came to 0.15 µg/mL.

B2: MAE15 (antibody, V domains shown)
VH: DVQHQESEPDLVKPSQSLSLTCTVTGYSITSGYNRHWIRQFPGNKLEWMGYIHYSGSTNYNPSLKRRISITRDTSKNQFFLQLNSVTTEDTATYYCARGSIYYYGSRYRYFDVWGAGTTVTVSS
VL: DIQLTQSPASLAVSLGQRATISCKASQSVDYDGDSYMNWYQQKPGQPPKLLIYAASNLESGIPARFSGSGSGTDFTLNIHPVEEEDAATYYCQQSNEDPFTFGAGT
B2 showed an EC50 of 6 µg/mL.

B3: MAE13 (antibody, V domains shown)
VH: DVQLQESGPGLVKPSQSLSLTCTVTGYTITSDNAWNWIRQFPGNKLEWMGYINHSGTTSYNPSLKSRISITRDTSKNQFFLQLNSVTTEDTATYYCAWVVAYAMDYWGQGTSVTVSS
VL: DIVMTQSQKFMSTSVGDRVSVTCKASQNVSSNVAWYQQKPGQSPKALIYSASYRYSGVPDRFTGSGSGTDFTLTISNVQSEDLAEYFCQQYYTYPLYTFGGGTKLEIKR
B3 registered a concentration for a half-maximal effect (EC50) of 1 µg/mL.
